The text below walks through data of patent US20160068605A1 (Janssen / Centocor, published 2016).

Broadly, the Kd is the equilibrium constant for the complex coming apart. In general, koff refers to the first-order rate constant of dissociation. What is called kon is a measure of how fast the partners come together.

The target of assay [1] is T1, Recombinant human CD123 SP1 ECD-His tag protein (human, UniProt P26951 20-305).
T1 construct: bought from R&D Systems (#301-R3/CF); biotinylated for some assays; also called rhCD123 SP1; huCD123 ECD SP1
T1 sequence: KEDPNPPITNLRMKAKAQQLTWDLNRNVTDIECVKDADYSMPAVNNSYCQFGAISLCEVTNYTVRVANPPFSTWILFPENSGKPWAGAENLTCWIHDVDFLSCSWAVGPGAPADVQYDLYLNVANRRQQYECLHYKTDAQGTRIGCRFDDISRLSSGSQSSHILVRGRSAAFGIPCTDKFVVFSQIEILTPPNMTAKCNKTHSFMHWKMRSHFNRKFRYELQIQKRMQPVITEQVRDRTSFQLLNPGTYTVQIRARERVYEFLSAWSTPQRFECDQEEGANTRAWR
Briefly: SPR Biacore 3000, captured mAb. How it is done:
(§1) Kinetic studies were performed at 25° C. using a Biacore 3000 (BIAcore, Inc., now part of GE Healthcare). […] Sheep anti-Human Fd specific antibody (The binding site Prod # PC075) was covalently attached to two flow cells (normally 3 and 4) of the carboxymethyl dextran coated gold surfaces (CM-5 Chip, Biacore). The carboxymethyl groups of dextran were activated with N-Ethyl-N′-(3-Dimethylaminopropyl)carbodiimide (EDC) and N-hydroxysuccinimide (NHS). The antibodies were coupled at pH 4.5 in 10 mM sodium acetate. Any remaining reactive sites on the surface were blocked by reaction with ethanolamine. […] Association data was collected for 2 min followed by 10 min of dissociation. The surface was regenerated with 30 μL of 100 mM H3PO4 100 μL/min. All samples were prepared in D-PBS containing 3 mM EDTA and 0.005% surfactant P20. Data reported is the difference in SPR signal between the flow cell containing the captured antibody or Fab and a reference cell without captured antibody or Fab. Additional instrumental contributions to the signal were removed by subtraction of the data from the blank injection from the reference-subtracted signal. Data were performed in triplicate and analyzed by fitting association and dissociation phases at all concentrations (global fit) with a 1:1 binding model using the BIAevaluation software (BIAcore, Inc.). […] Data presented is an average.
Background: SPR reads the build-up and loss of mass on a sensor chip optically.

The target of assay [2] is T2, Recombinant human CD123 SP2 ECD protein (human, UniProt P26951 101-303).
T2 construct: also called rhCD123 SP2; CD123 ECD SP2
T2 sequence: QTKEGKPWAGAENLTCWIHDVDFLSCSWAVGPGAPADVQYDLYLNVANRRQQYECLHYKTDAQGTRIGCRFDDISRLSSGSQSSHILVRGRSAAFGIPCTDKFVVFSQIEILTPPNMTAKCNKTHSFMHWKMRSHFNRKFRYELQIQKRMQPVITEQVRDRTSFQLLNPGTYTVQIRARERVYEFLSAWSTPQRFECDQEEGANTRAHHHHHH
Briefly: SPR Biacore 3000, captured mAb. How it is done: as §1

B1: I3RB18 (antibody, IgG1, V domains shown)
VH: EVQLVQSGAEVKKPGESLKISCKGSGYSFTSYWISWVRQMPGKGLEWMGIIDPSDSDTRYSPSFQGQVTISADKSISTAYLQWSSLKASDTAMYYCARGDGSTDLDYWGQGTLVTVSS
VL: EIVLTQSPGTLSLSPGERATLSCRASQSVSSSYLAWYQQKPGQAPRLLIYGASSRATGIPDRFSGSGSGTDFTLTISRLEPEDFAVYYCQQDYGFPWTFGQGTKVEIK
notes: IgG1; also called 13RB18; mAb I3RB18
B1: in assay [1], the dissociation constant (Kd) is 1200 pM, the koff turned out to be 0.000808 s⁻¹ and the kon was 688000 M⁻¹ s⁻¹. Also, the Kd in assay [2] stood at 300 pM.
